The target of assay [1] is gE WT: HSV2 gE wildtype ectodomain (HSV2, UniProt P89475 21-416). The assay is described as follows: ELISA, supernatant.
For assay [2], the target named is T1, gI WT: HSV2 gI wildtype ectodomain (HSV2, UniProt P06764 21-256). The assay is described as follows: ELISA, supernatant.
The target of assay [3] is gEgI mutant (338): HSV2 gEgI mutant heterodimer comprising gE and gI ectodomains with insertion of a (HSV2, UniProt P89475 21-416; P06764 21-256). The assay is described as follows: ELISA, supernatant.
Assay [4] deals with T2, gEgI WT: HSV2 gEgI heterodimer comprising gE and gI wildtype ectodomains (HSV2, UniProt P89475 21-416; P06764 21-256). The experiment in a line: SPR binning; gEgI captured by mAb 5.
The target of assay [5] is T2, gEgI WT: HSV2 gEgI heterodimer …. The experiment in a line: SPR binning; gEgI captured by mAb 9.
For assay [6] the target is unchanged. The experiment in a line: SPR binning; gEgI captured by mAb 10.
Assay [7] shares this target. The assay is described as follows: SPR binning; gEgI captured by mAb 15.
Assay [8] has the same target. The assay is described as follows: SPR binning; gEgI captured by mAb 17.
Assay [9] has the same target. The experiment in a line: SPR binning; gEgI captured by mAb 19.
Assay [10] has the same target. The experiment in a line: SPR binning; gEgI captured by mAb 20.
For assay [11] the target is unchanged. The assay is described as follows: SPR binning; gEgI captured by mAb 24.
Assay [12] has the same target. The assay is described as follows: SPR binning; gEgI captured by mAb 34.
Assay [13] has the same target. The assay is described as follows: SPR binning; gEgI captured by mAb 39.
For assay [14] the target is unchanged. The experiment in a line: SPR binning; gEgI captured by mAb 40.
For assay [15] the target is unchanged. The experiment in a line: SPR binning; gEgI captured by mAb 42.
Assay [16] has the same target. The experiment in a line: SPR binning; gEgI captured by mAb 45.
The target of assay [17] is T1, gI WT: HSV2 gI wildtype ectodomain. The experiment in a line: ELISA, supernatant. This is another data set of the same source.
Assay [18] deals with T2, gEgI WT: HSV2 gEgI heterodimer …. The assay is described as follows: Biacore SPR, gEgI CHO BMP1181 at 10 µg/ml for 180 s over the mAb.
Assay [19] has the same target. The experiment in a line: Biacore SPR, gEgI HEK BMP1063 at 10 µg/ml for 180 s over the mAb.

Where two headings read alike, the source gives them in different places.

B1: mAb clone 9 (antibody, V domains shown)
VH: EVQLQQSGPELEKPGASVKISCKASGYSFTGYNMNWVKQSNGKSLEWIGNIDPYYGGTSYNQKFKGKATLTLDKSSSTAYMQLKSLTSEDSAVYYCARSRFITTVVATDYYAMDYWGQGTSVTVSS
VL: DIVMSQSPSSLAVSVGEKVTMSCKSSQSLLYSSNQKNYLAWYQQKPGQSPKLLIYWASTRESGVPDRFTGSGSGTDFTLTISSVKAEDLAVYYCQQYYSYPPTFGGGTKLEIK
B1: the binding result is “no binding” in assay [1], “no binding” in assay [2] and “binds” in assay [3]. Besides, the RU is 9.4 RU in assay [4]; -0.4 RU in [5]; 11 RU in [6]; 5.5 RU in assay [7]; 7.8 RU in assay [8]; -5.1 RU in [9]. For the same molecule, the RU is 4.8 RU in [10]; -0.1 RU in assay [11]; 0.9 RU in assay [12]; 9 RU in [13]; 6 RU in assay [14]; 7 RU in assay [15]. The RU in [16] stood at 1.8 RU.

B2: mAb clone 18 (antibody, V domains shown)
VH: QVQLQQSGAELVRPGTSVKMSCKAAGYTFTNYWIGWVKQRPGHGLEWIGDIYPGGGYTKYNEKFKGKATLTADTSSSTAYMQLSSLTSEDSAIYYCARDGYSPYWGQGTSLTVSS
VL: TIVMTQTPKFLLVSAGDRVTITCKASQSVSNAVAWYQQKPGQSPKLLIYSASNRYTGVPDRFTGSGYGTDFTFTISSVQAEDLAVYFCQQDYTSPFTFGSGTKLEIK
notes: also called mAb 18; mAb18
For B2, the binding result in [17] is “no binding”.

B3: mAb clone 20 (antibody, V domains shown)
VH: QVQLQQSGAELVRPGTSVKVSCKASGYAFTNYLIEWVKQRPGQGLEWIGVINPGSGGTNYNEKFKGKATLTADKSSSTAYMQLSSLTSDDSAVYFCARSHYGNYYAMDYWGQGTSVTVSS
VL: NIVLTQSPASLAVSLGQRATISCRASESVDSYGNSFMHWYQQKPGQPPKLLIYLASNLESGVPARFSGSGSRTDFTLTIDPVEADDAATYYCQQNNEDPWTFGGGTKLEIK
As for B3, the binding result in assay [1] is “no binding”; in assay [2], “no binding”; in [3], “binds”. Moreover, the RU in assay [4] worked out at 25.3 RU; in assay [5] it was 13 RU; in assay [6] it was 32.8 RU; in [7], 18.5 RU; in assay [8], 24 RU; in assay [9] it was 6.5 RU. In addition, the RU turned out to be 9.7 RU in [10]; 7.3 RU in assay [11]; 13.4 RU in [12]; 23.8 RU in assay [13]; 21.3 RU in [14]; 24.5 RU in assay [15]. Also, the RU in assay [16] was determined as 16.4 RU.

B4: mAb clone 24 (antibody, V domains shown)
VH: EVQLQQSGPELVKPGASVKMSCKASGYTFTDYYMKWVKQSHGKSLEWIGDINPNNGDTFYNQKFKGKATLTVDKSSSTAYMQLNSLTSEDSAVYYCARRGFYYYGSRGGIMDYWGQGTSVTVSS
VL: NIMMTQSPSSLAVSAGEKVTMSCKSSQSVLYSSNQKNYLAWYQQKPGQSPKLLIYWASTRESGVPDRFTGSGSGTDFTLTISSVQAEDLAVYYCHQYLSSYTFGGGTKLEIK
Take B4: the binding result was “no binding” in assay [1], “no binding” in [2] and “binds” in assay [3]. Also, the RU was found to be 34.4 RU in assay [4]; 17 RU in assay [5]; 39.1 RU in [6]; 42.6 RU in assay [7]; 32.1 RU in [8]; 13.3 RU in [9]. In addition, the RU in [10] was 17.7 RU; in [11], 6.4 RU; in assay [12] it was 20.7 RU; in assay [13], 30.5 RU; in [14] it was 28.3 RU; in assay [15], 30.7 RU. In [16], this molecule came in with an RU of 26.8 RU.

B5: mAb clone 10 (antibody, V domains shown)
VH: EVKLVESGGGLVQPGGSLRLSCATSGFTFSDFYMEWVRQPPGKRLEWIAASRNKANDYTTEYSASVKGRFIVSRDTSQSILYLQMNALRAEDTAIYYCARENYGNPAMDYWGQGTSVTVSS
VL: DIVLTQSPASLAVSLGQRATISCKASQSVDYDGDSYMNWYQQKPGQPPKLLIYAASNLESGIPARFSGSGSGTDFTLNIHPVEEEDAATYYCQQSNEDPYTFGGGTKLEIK
In the case of B5, the binding result in assay [1] is reported as “no binding”; in assay [2], “no binding”; in assay [3], “binds”. For the same molecule, the RU amounted to 10.6 RU in [4]; 8.3 RU in assay [5]; 4 RU in [6]; 3.3 RU in assay [7]; 8.2 RU in [8]; 2.3 RU in [9]. In addition, the RU in assay [10] was found to be 10.8 RU; in assay [11] it was 8.2 RU; in assay [12], 2 RU; in [13], 10.3 RU; in assay [14], 8.3 RU; in assay [15], 9.4 RU. The same molecule had an RU in [16] of -2 RU.

B6: mAb clone 5 (antibody, V domains shown)
VH: EVKLVESGGGLVQPGGSLRLSCATSGFTFSDFYMEWVRQPPGKRLEWIAASRNKANDYTTEYSASVKGRFIVSRDTSQSILYLQMNALRAEDTAIYYCARDFLPYYGSPWFAYWGQGTLVTVSA
VL: DIVMTQSPATLSVTPGDRVSLSCRASQSISDYLHWYQQKSHESPRLLIKYASQSISGIPSRFSGSGSGSDFTLSINSVEPEDVGVYYCQNGHSFPYTFGGGTKLEIK
notes: also called mAb 5; GEGI/5IIa
On to B6, for which, in assay [2], the binding result was “no binding”.

B7: mAb clone 3, 21 (antibody, V domains shown)
VH: EVQLQQSGPELVKPGASVKISCKTSGYTFTEYTMHWVKQSHGKSLEWIGGINPNNGGTSYNQKFKGKATLTVDKSSSTAYMELRSLTSEDSAVYYCARSLVEGDFAYWGQGTLVTVSA
VL: DIVLTQSPASLAVSLGQRATISCRASQSVSTSSYSYMHWYQQKPGQPPKLLIKYASNLESGVPARFSGSGSGTDFTLNIHPVEEEDTATYYCQHSWEIPYTFGGGTKLEIK
In the case of B7, the figures for the binding result in [1], in [2] and in assay [3] were “binds”, “no binding” and “binds”, respectively. The results for the “RU Ag/250 RU mAbs” value in assay [18] and in assay [19] were 3.41 RU Ag/250 RU mAbs and 5.89 RU Ag/250 RU mAbs, respectively.

B8: mAb clone 17 (antibody, V domains shown)
VH: QVQLKESGPGLVAPSQSLSITCTVSGFSLTSYGVHWVRQPPGKGLEWLGVIWAGGSSNYNSALMSRLSISKDNSKSQVFLKMNSLQTDDTAMYYCARDGYGYVYYAMDYWGQGTSVTVSS
VL: DIVMTQAAPSVPVTPGESVSISCRSSKSLLHSNGNTYLYWFLQRPGQSPQLLIYRMSNLASGVPDRFSGSGSGTAFTLRISRVEAEDVGVYYCMQHLEYPFTFGAGTKLELK
With B8, the binding result is reported as “no binding” in [1], “no binding” in assay [2] and “binds” in [3]. Further, the RU in [4] is 0.5 RU; in assay [5], -0.5 RU; in assay [6] it was 4.6 RU; in [7], -6.7 RU; in assay [8] it was -8.7 RU; in assay [9] it was -6.3 RU. In addition, the RU is 2.2 RU in assay [10]; -2 RU in assay [11]; -9.4 RU in assay [12]; 0.5 RU in assay [13]; -2.4 RU in assay [14]; -0.8 RU in assay [15]. In assay [16], this molecule showed an RU of -2.6 RU.

The values are drawn from patent US20230331820A1 (GlaxoSmithKline, published 2023).
